Test results taken from patent US20260167699A1 (Chugai, published 2026).
Each block holds one binder with its values, some of them ahead of it.

What was measured:
Assay in all cases: SPR (Biacore), binding relative to GpH7-A5/GpH7-B3/GpL16-k0 x100;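 also: surface plasmon resonance at 25 °C, antibody captured on a sensor chip and soluble FcγR flowed over it in HBS-EP+ running buffer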
FcγRIa = target: T1, FcγRIa (human, UniProt P12314 16-292)
T1 construct: extracellular domain; also called 1a
Protocol: (§1) The antibody of interest was analyzed for its interaction with FcγR using a BiaCore™ T100, BiaCore™ A100, or BiaCore™ 4000 surface plasmon resonance system (GE Healthcare Japan Corp.). The running buffer used was HBS-EP+ (GE Healthcare Japan Corp.). The assay temperature was set to 25° C. The sensor chips used were: a chip prepared by immobilizing antigenic peptides onto Series S Sensor Chip CM5 (GE Healthcare Japan Corp.) by the amine coupling method; a chip prepared by immobilizing antigenic peptides biotinylated in advance onto Series S Sensor Chip SA (certified) (GE Healthcare Japan Corp.) through their interaction; a chip prepared by immobilizing protein L (ACTIGEN, BioVision, Inc.) onto Series S Sensor Chip CM5 (GE Healthcare Japan Corp.); and a chip prepared by immobilizing protein A/G (Thermo Fisher Scientific K.K.) onto Series S Sensor Chip CM5 (GE Healthcare Japan Corp.). The antibody of interest was captured onto any of these chips and allowed to interact with FcγR diluted with a running buffer. The antibody captured on the chip was washed off through the reaction of 10 mM glycine-HCl (pH 1.5) to regenerate the chip, which was repetitively used.

FcγRIIa(R) = target: T2, FcγRIIa(R) (human, UniProt P12318 34-217)
T2 construct: extracellular domain; also called FcγRIIa R type; 2aR
T2 sequence: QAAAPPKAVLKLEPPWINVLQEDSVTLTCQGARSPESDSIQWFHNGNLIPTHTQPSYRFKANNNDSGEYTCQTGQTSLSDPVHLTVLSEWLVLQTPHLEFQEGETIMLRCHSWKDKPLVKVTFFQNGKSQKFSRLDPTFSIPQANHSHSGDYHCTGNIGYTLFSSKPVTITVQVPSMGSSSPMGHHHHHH
Protocol: as §1

FcγRIIa(H) = target: T3, FcγRIIa(H) (human, UniProt P12318 34-217)
T3 construct: extracellular domain; also called FcγRIIa H type; 2aH
T3 sequence: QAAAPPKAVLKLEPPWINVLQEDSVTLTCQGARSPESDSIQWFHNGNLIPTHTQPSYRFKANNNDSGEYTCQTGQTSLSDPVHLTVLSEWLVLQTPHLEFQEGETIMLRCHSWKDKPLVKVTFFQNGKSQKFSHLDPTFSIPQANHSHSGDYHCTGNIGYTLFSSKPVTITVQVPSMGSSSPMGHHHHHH
Protocol: as §1

FcγRIIb = target: T4, FcγRIIb (human, UniProt P31994 43-217)
T4 construct: extracellular domain; also called 2b
T4 sequence: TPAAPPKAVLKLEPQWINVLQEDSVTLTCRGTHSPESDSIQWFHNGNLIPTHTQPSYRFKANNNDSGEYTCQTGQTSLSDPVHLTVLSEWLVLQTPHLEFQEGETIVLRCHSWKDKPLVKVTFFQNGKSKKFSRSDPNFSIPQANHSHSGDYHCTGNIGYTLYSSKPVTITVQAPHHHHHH
Protocol: as §1

T1 sequence (P12314 other isoform, or with tags, fused parts or gaps): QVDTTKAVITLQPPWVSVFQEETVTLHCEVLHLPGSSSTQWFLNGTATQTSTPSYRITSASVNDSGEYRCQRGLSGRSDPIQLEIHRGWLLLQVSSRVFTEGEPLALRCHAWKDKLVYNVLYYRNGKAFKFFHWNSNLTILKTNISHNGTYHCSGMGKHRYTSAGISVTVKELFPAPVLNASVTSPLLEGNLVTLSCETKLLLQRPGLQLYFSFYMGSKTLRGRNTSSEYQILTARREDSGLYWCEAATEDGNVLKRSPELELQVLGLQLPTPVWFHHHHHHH

He/Con 1a (FcγRIa): 100%
He/Con 2aR (FcγRIIa(R)): 132%
He/Con 2aH (FcγRIIa(H)): 123%
He/Con 2b (FcγRIIb): 135%
B2: GpH7-A5/GpH7-B3 variant L235_04F/GpL16-k0 (antibody, human IgG1, kappa)
heavy 1: not shown
heavy 2: not shown
light: DIVMTQSPLSLPVTPGEPASISCQASESLVHSNRNTYLHWYLQKPGQSPQLLIYKVSNRFSGVPDRFSGSGSGTDFTLKISRVEAEDVGVYYCSQNTHVPPTFGQGTKVEIERTVAAPSVFIFPPSDEQLKSGTASVVCLLNNFYPREAKVQWKVDNALQSGNSQESVTEQDSKDSTYSLSSTLTLSKADYEKHKVYACEVTHQGLSSPVTKSFNRGEC
notes: heterodimerized IgG1, one H chain mutated; also called He Ab

He/Con 1a (FcγRIa): 97.8%
He/Con 2aR (FcγRIIa(R)): 74.6%
He/Con 2aH (FcγRIIa(H)): 64.2%
He/Con 2b (FcγRIIb): 62.4%
B3: GpH7-A5/GpH7-B3 variant L235_05P/GpL16-k0 (antibody, human IgG1, kappa)
heavy 1: not shown
heavy 2: not shown
light: DIVMTQSPLSLPVTPGEPASISCQASESLVHSNRNTYLHWYLQKPGQSPQLLIYKVSNRFSGVPDRFSGSGSGTDFTLKISRVEAEDVGVYYCSQNTHVPPTFGQGTKVEIERTVAAPSVFIFPPSDEQLKSGTASVVCLLNNFYPREAKVQWKVDNALQSGNSQESVTEQDSKDSTYSLSSTLTLSKADYEKHKVYACEVTHQGLSSPVTKSFNRGEC
notes: as for B2

He/Con 1a (FcγRIa): 97.3%
He/Con 2aR (FcγRIIa(R)): 98%
He/Con 2aH (FcγRIIa(H)): 100%
He/Con 2b (FcγRIIb): 92%
B4: GpH7-A5/GpH7-B3 variant L234_18N/GpL16-k0 (antibody, human IgG1, kappa)
heavy 1: not shown
heavy 2: not shown
light: DIVMTQSPLSLPVTPGEPASISCQASESLVHSNRNTYLHWYLQKPGQSPQLLIYKVSNRFSGVPDRFSGSGSGTDFTLKISRVEAEDVGVYYCSQNTHVPPTFGQGTKVEIERTVAAPSVFIFPPSDEQLKSGTASVVCLLNNFYPREAKVQWKVDNALQSGNSQESVTEQDSKDSTYSLSSTLTLSKADYEKHKVYACEVTHQGLSSPVTKSFNRGEC
notes: as for B2

Second part, the binder before the results:

B1: GpH7-A5/GpH7-B3 variant L234_16H/GpL16-k0 (antibody, human IgG1, kappa)
heavy 1: not shown
heavy 2: not shown
light: DIVMTQSPLSLPVTPGEPASISCQASESLVHSNRNTYLHWYLQKPGQSPQLLIYKVSNRFSGVPDRFSGSGSGTDFTLKISRVEAEDVGVYYCSQNTHVPPTFGQGTKVEIERTVAAPSVFIFPPSDEQLKSGTASVVCLLNNFYPREAKVQWKVDNALQSGNSQESVTEQDSKDSTYSLSSTLTLSKADYEKHKVYACEVTHQGLSSPVTKSFNRGEC
notes: as for B2
He/Con 1a (FcγRIa): 97%
He/Con 2aR (FcγRIIa(R)): 83.5%
He/Con 2aH (FcγRIIa(H)): 97.1%
He/Con 2b (FcγRIIb): 67.8%

B5: GpH7-A5/GpH7-B3 variant L234_14T/GpL16-k0 (antibody, human IgG1, kappa)
heavy 1: not shown
heavy 2: not shown
light: DIVMTQSPLSLPVTPGEPASISCQASESLVHSNRNTYLHWYLQKPGQSPQLLIYKVSNRFSGVPDRFSGSGSGTDFTLKISRVEAEDVGVYYCSQNTHVPPTFGQGTKVEIERTVAAPSVFIFPPSDEQLKSGTASVVCLLNNFYPREAKVQWKVDNALQSGNSQESVTEQDSKDSTYSLSSTLTLSKADYEKHKVYACEVTHQGLSSPVTKSFNRGEC
notes: as for B2
He/Con 1a (FcγRIa): 102%
He/Con 2aR (FcγRIIa(R)): 90%
He/Con 2aH (FcγRIIa(H)): 86.8%
He/Con 2b (FcγRIIb): 71.4%

B6: GpH7-A5/GpH7-B3 variant L234_13S/GpL16-k0 (antibody, human IgG1, kappa)
heavy 1: not shown
heavy 2: not shown
light: DIVMTQSPLSLPVTPGEPASISCQASESLVHSNRNTYLHWYLQKPGQSPQLLIYKVSNRFSGVPDRFSGSGSGTDFTLKISRVEAEDVGVYYCSQNTHVPPTFGQGTKVEIERTVAAPSVFIFPPSDEQLKSGTASVVCLLNNFYPREAKVQWKVDNALQSGNSQESVTEQDSKDSTYSLSSTLTLSKADYEKHKVYACEVTHQGLSSPVTKSFNRGEC
notes: as for B2
He/Con 1a (FcγRIa): 100%
He/Con 2aR (FcγRIIa(R)): 82.6%
He/Con 2aH (FcγRIIa(H)): 89.4%
He/Con 2b (FcγRIIb): 67.7%

B7: GpH7-A5/GpH7-B3 variant L234_15Y/GpL16-k0 (antibody, human IgG1, kappa)
heavy 1: not shown
heavy 2: not shown
light: DIVMTQSPLSLPVTPGEPASISCQASESLVHSNRNTYLHWYLQKPGQSPQLLIYKVSNRFSGVPDRFSGSGSGTDFTLKISRVEAEDVGVYYCSQNTHVPPTFGQGTKVEIERTVAAPSVFIFPPSDEQLKSGTASVVCLLNNFYPREAKVQWKVDNALQSGNSQESVTEQDSKDSTYSLSSTLTLSKADYEKHKVYACEVTHQGLSSPVTKSFNRGEC
notes: as for B2
He/Con 1a (FcγRIa): 103%
He/Con 2aR (FcγRIIa(R)): 113%
He/Con 2aH (FcγRIIa(H)): 134%
He/Con 2b (FcγRIIb): 110%

B8: GpH7-A5/GpH7-B3 variant L234_09D/GpL16-k0 (antibody, human IgG1, kappa)
heavy 1: not shown
heavy 2: not shown
light: DIVMTQSPLSLPVTPGEPASISCQASESLVHSNRNTYLHWYLQKPGQSPQLLIYKVSNRFSGVPDRFSGSGSGTDFTLKISRVEAEDVGVYYCSQNTHVPPTFGQGTKVEIERTVAAPSVFIFPPSDEQLKSGTASVVCLLNNFYPREAKVQWKVDNALQSGNSQESVTEQDSKDSTYSLSSTLTLSKADYEKHKVYACEVTHQGLSSPVTKSFNRGEC
notes: as for B2
He/Con 1a (FcγRIa): 101%
He/Con 2aR (FcγRIIa(R)): 142%
He/Con 2aH (FcγRIIa(H)): 100%
He/Con 2b (FcγRIIb): 172%
